# The RNAGym collection of RNA variant scans (doi:10.1073/pnas.2313332121)
# Variants at the floor of the assay were thinned out.
# B1: TPR 5TU (parent)
# chain: GGAUCUUCUCGAUCUAACAAAAAAGACAAAUCUGCCACAAAGCUUGAGAGCAUCUUCGGAUGCAGAGGCGGCAGCCUUCGGUGGCGCGAUAGCGCCAACGUUCUCAACUAUGACACGCAAAACGCGUGCUCCGUUGAAUGGAGUUUAUCAUG
# Variants of: B1
# Assay: polymerase ribozyme fitness, log enrichment relative to wild type (log ratio); higher = more active; in vitro selection for triplet polymerase activity
# Procedure, shortened: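 Mutant libraries were PCR-built and transcribed for each subunit of a heterodimeric triplet polymerase ribozyme and selected for one round in triplicate at −7 °C, frozen, before gel excision of extended constructs and streptavidin-bead capture. Input and output libraries were Illumina-sequenced, keeping genotypes with ≥10 input reads and ≥1 read per output. Fitness is a logarithmic ratio of genotype to wild-type enrichment, in base 2, using inverse-variance-weighted replicate averages.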
row,Variant,polymerase ribozyme fitness (log ratio)
1,U53G C123A G126C,-1.32
2,U53G A91G,-3.94
3,U55A C99G,-1.61
4,C54U G83A A147U,-0.818
5,U55A G94A,-0.894
6,U53A C85G,-3.15
7,U53A C85A,-4
8,C54A C87U C93G U134G U135A,≤ -4.2
9,C54G G80C A89G C93A,≤ -4.2
10,C54U U82C U90C C96A U101G,≤ -4.2
11,U53A G92C,-3.01
12,U53A G92U,-1.74
13,C54G C96G G128U,≤ -4.2
14,U53A G83U,-0.881
15,C54U C118U U145A,-0.457
16,U55A G92U C96A G117A A121U,-1.48
17,U53A U55A C129U,-3.06
18,C54A C85U C125G,-1.96
19,U53A U144G,-2.22
20,C54U C103U C123A U148G,≤ -4.2
21,U53A G143U,-3.09

row,Variant,polymerase ribozyme fitness (log ratio)
1,U53G U90A C93G A110C,≤ -4.2
2,U53A C79A,≤ -4.2
3,U53A G83U A115C G124A,-2.73
4,U55C C85A A119G A137U,≤ -4.2
5,C54U C76A C96A U127C G136A,-3.34
6,U53A C85A A89C,-3.89
7,C54U C69A,-3.63
8,C54U A97G C99G U135G,-3.75
9,C54G C57A G58C G94A,-0.504
10,U55A G68A G86U U90A A97U U101A A137C U145C,≤ -4.2
11,U55A A73G U77G A91C C116A G141A,≤ -4.2
12,C54A G94C A107C C108G,≤ -4.2
13,C54G G74C G80A C96U A138U,≤ -4.2
14,U55C G74U,≤ -4.2
15,C54A G83U U134A U148C,≤ -4.2
16,U55A G128C U146A,-4.09
17,U55A U82G G92A C103U G124A,-3.62
18,U55A C93U A150C,-4.02
19,U55A G84U G124A,-1.26
20,U55A C93U C95A,-2.89
21,C54G G84C U109C U134G U148A,≤ -4.2

row,Variant,polymerase ribozyme fitness (log ratio)
1,U55A C85A U102A,≤ -4.2
2,C54A U56A C96U C105U G126A,-2.51
3,U53C G94A A97G,-2.46
4,C54U G68A A97G G124A U144C,-3.84
5,U55A G59A U61C U135C A142G,-3.84
6,U53A G92C A137G,-3.41
7,U53A U109G C116A G136C U144C,-4.07
8,U53A G68U A73G U134G A138C,≤ -4.2
9,C54G G71C C85U C93U U144G,≤ -4.2
10,C54U U56A C93U G133U,-4.06
11,U55A C85A C93G,≤ -4.2
12,U55A G59C,0.269
13,C54A A89G,-2.13
14,U53A U78A C85U U102C,≤ -4.2
15,U53A C96U C114G,-4.15
16,U55A C96A A107C C116A G124C U151A,≤ -4.2
17,U53G G58C G92A C125G A150C,≤ -4.2
18,C54A G143C,-2.81
19,U53A G141A,-1.9
20,C54G C105U,-1.24
21,U53A C87A A107C C108A U111G U146C U148A,≤ -4.2

row,Variant,polymerase ribozyme fitness (log ratio)
1,U53A C69U,-4.11
2,C54A C95A,-1.25
3,U55A G128U,-3.12
4,U53A C87U A150U,-0.451
5,C54U G58A C93U,-1.1
6,C54A G86A,-3.13
7,U53A C76U A142G,-2.87
8,U53G C85G,-3.69
9,U53G G83C,-3.03
10,C54A G84C,-2.93
11,C54A G86U U101G,-3.14
12,U55A G81A C87U G136A,0.0612
13,C54U C76U C87U U127A U139C A142U C149G,≤ -4.2
14,U55A C76G U134G,≤ -4.2
15,C54G A64G G94A G100U C105A,≤ -4.2
16,C54G G141A,-1.35
17,U53A G74A U145G,≤ -4.2
18,U53A U104G,-1.97
19,U55A A120U,-0.857
20,U55A C63U C85U C103A G136A A147U,-0.434
